Assay [1] has as its target VvGH17 C-terminal-truncated mutant ΔC466 (Vibrio vulnificus). Put plainly: native gel or EMSA; blue native PAGE, 5–10% gradient gel, 4 °C, 150 V for 3.5 h; 50 mM tricine, 15 mM bis-Tris/HCl, pH 7; cathode buffer with 0.02% Coomassie blue G250; monomer to trimer. For orientation: A gel shift assay detects complexes by their altered migration in electrophoresis.
Assay [2] addresses glycoside hydrolase family 17 β-1,3-glucanase of Vibrio vulnificus (VvGH17), wild type (Vibrio vulnificus). Described as above.

Consider “VvGH17 C-terminal-truncated mutant ΔC466 (domain or fragment)”, for which the stoichiometry N (commonly a count of units in the complex or per binding partner) in assay [1] was 3.

Consider “glycoside hydrolase family 17 β-1,3-glucanase of Vibrio vulnificus (VvGH17), wild type (enzyme)”, for which, in assay [2], the stoichiometry N amounted to 3.

For the origin of these results see PMC9026390.
